In the assay the target is laminin β1 LN–LEa1–4 fragment (mouse, UniProt P02469 22-509). Briefly: SPR.

The Kd is the constant that tells how readily two partners part at equilibrium. Read a low Kd as higher affinity.

Some results are limits rather than exact numbers.

laminin β1 LN–LEa1–4 fragment, sequence (P02469 22-509): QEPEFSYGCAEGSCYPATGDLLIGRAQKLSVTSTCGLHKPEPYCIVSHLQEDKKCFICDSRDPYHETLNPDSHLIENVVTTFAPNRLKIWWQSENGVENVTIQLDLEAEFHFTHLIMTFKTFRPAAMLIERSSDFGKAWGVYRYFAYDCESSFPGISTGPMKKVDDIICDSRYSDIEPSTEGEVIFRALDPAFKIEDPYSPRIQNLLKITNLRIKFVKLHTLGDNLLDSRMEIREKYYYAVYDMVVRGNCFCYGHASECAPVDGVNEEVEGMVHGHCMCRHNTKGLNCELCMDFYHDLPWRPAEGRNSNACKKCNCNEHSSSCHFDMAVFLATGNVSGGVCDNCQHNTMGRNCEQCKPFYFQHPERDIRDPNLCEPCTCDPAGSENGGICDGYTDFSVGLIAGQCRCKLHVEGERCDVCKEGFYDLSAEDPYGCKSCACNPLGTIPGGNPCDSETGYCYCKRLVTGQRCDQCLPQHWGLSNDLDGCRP

B1: laminin γ1 LN–LEa1–4 fragment (domain or fragment, mouse, UniProt P02468 34-492, looked up)
chain: AMDECADEGGRPQRCMPEFVNAAFNVTVVATNTCGTPPEEYCVQTGVTGVTKSCHLCDAGQQHLQHGAAFLTDYNNQADTTWWQSQTMLAGVQYPNSINLTLHLGKAFDITYVRLKFHTSRPESFAIYKRTREDGPWIPYQYYSGSCENTYSKANRGFIRTGGDEQQALCTDEFSDISPLTGGNVAFSTLEGRPSAYNFDNSPVLQEWVTATDIRVTLNRLNTFGDEVFNEPKVLKSYYYAISDFAVGGRCKCNGHASECVKNEFDKLMCNCKHNTYGVDCEKCLPFFNDRPWRRATAESASESLPCDCNGRSQECYFDPELYRSTGHGGHCTNCRDNTDGAKCERCRENFFRLGNTEACSPCHCSPVGSLSTQCDSYGRCSCKPGVMGDKCDRCQPGFHSLTEAGCRPCSCDLRGSTDECNVETGRCVCKDNVEGFNCERCKPGFFNLESSNPKGCTP
B1 displayed a Kd of at least 5 µM.

The values are drawn from article PMC3059903 (EMBO Reports, 2011).
